# Measured values reported in the supplement of paper PMC7877785.
# ± gives the uncertainty stated by the source.
# Test: self-splicing fitness, log relative to wild type (ln ratio); higher = more splicing; Tetrahymena group I intron in knt gene, E. coli kanamycin selection, DiMSum; sequences stand for … in CUCUCU…GGAGGGAAAAGUUAUCAGGCAUGCACCUGGUAGCUAGUCUUUAAACCAAUAGAUUGCAUCGGUUUAAAAGGCAAGACCGUCAAAUUGCGGGAAAGGGGUCAACAGCCGUUCAGUACCAAGUCUCAGGGGAAACUUUGAGAUGGCCUUGCAAAGGGUAUGGUAAUAAGCUGACGGACAUGGUCCUAACCACGCAGCCAAGUCCUAAGUCAACAGAUCUUCUGUUGAUAUGGAUGCAGUUCACAGACUAAAUGUCGGUCGGGGAAGAUGUAUUCUUCUCAUAAGAUAUAGUCGGACCUCUCCUUAAUGGGAGCUAGCGGAUGAAGUGAUGCAACACUGGAGCCGCUGGGAACUAAUUUGUAUGCGAAAGUAUAUUGAUUAGUUUUGGAGUACUCGUGGUCG
# Outline: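 Pooled colonies went to amplicon sequencing on an Illumina HiSeq 2500 after six replicate transformations. The plates were LB agar with 100 μg/mL carbenicillin, 50 μM IPTG and 0.2% rhamnose, with or without 25 μg/mL kanamycin, incubated overnight at 37°C or 30°C. The E. coli BL21(DE3) library had all eight P1ex-region intron nucleotides randomised, the intron placed in the knt kanamycin-resistance gene on pET-22b(+). DiMSum fitness is the error-weighted combination of replicate fold changes, kanamycin against none, normalised to wild type.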
Sequence,self-splicing fitness (ln) (30 °C),self-splicing fitness (ln) (37 °C)
GAGAAGCAAUAUUACGAAAG,-4.36 ± 0.32,-1.5 ± 0.2
CGGCAGCAAUAUUACGCUGU,-3.8 ± 0.14,-2.29 ± 0.15
AACUAGCAAUAUUACGGUAG,-2.06 ± 0.11,0.0456 ± 0.12
CGCGAGCAAUAUUACGCGAC,-2.96 ± 0.34,-0.404 ± 0.39
CACAAGCAAUAUUACGACCG,0.562 ± 0.17,0.582 ± 0.2
CCUAAGCAAUAUUACGUUCG,-2.38 ± 0.091,-2.02 ± 0.11
GGUCAGCAAUAUUACGGCUA,0.0808 ± 0.098,0.494 ± 0.12
AUAAAGCAAUAUUACGACUG,-1.14 ± 0.085,-0.454 ± 0.098
AGAUAGCAAUAUUACGGUCA,-0.325 ± 0.08,0.317 ± 0.11
UUGUAGCAAUAUUACGCAGA,-2.2 ± 0.35,-0.763 ± 0.28
CGGUAGCAAUAUUACGUUUC,-2.48 ± 0.32,
AUGGAGCAAUAUUACGACAG,-2.74 ± 0.28,-0.415 ± 0.28
GGUCAGCAAUAUUACGAUCG,0.0558 ± 0.12,0.097 ± 0.16
CCCGAGCAAUAUUACGCUCA,-2.87 ± 0.32,-2.7 ± 0.36
CACUAGCAAUAUUACGUUUU,-2.97 ± 0.12,-2.4 ± 0.13
GUACAGCAAUAUUACGUCAG,-4.26 ± 0.29,-2.99 ± 0.26
AACCAGCAAUAUUACGAUCC,-0.433 ± 0.078,-0.358 ± 0.12
CCUGAGCAAUAUUACGUUCA,-3.2 ± 0.43,-2.59 ± 0.32
GCCUAGCAAUAUUACGCACA,-0.975 ± 0.12,-0.604 ± 0.13
UCGAAGCAAUAUUACGUACA,-0.691 ± 0.13,0.0696 ± 0.11
ACAUAGCAAUAUUACGAGCC,-3.94 ± 0.36,-2.42 ± 0.28
UUUAAGCAAUAUUACGCACA,-0.157 ± 0.068,0.181 ± 0.086
GAAUAGCAAUAUUACGUCGA,-0.367 ± 0.11,-0.794 ± 0.12
GGGGAGCAAUAUUACGCGGA,-2.24 ± 0.32,-2.59 ± 0.36
UGGAAGCAAUAUUACGUUAG,-0.289 ± 0.094,-1.07 ± 0.14

Sequence,self-splicing fitness (ln) (30 °C),self-splicing fitness (ln) (37 °C)
CUGGAGCAAUAUUACGGGAA,-2.68 ± 0.31,-2.36 ± 0.27
CAGGAGCAAUAUUACGAGUU,-3.36 ± 0.43,
GAGUAGCAAUAUUACGAAUA,-2 ± 0.14,-1.76 ± 0.14
UUAGAGCAAUAUUACGGGGA,-2.48 ± 0.21,-1 ± 0.2
UAGCAGCAAUAUUACGUAAA,-1.73 ± 0.099,-1.32 ± 0.13
UCCCAGCAAUAUUACGUCGU,-1.69 ± 0.085,-0.682 ± 0.11
UCGAAGCAAUAUUACGCUCG,-2.53 ± 0.31,-1.39 ± 0.27
CGACAGCAAUAUUACGGGAU,-3.98 ± 0.18,-2.52 ± 0.19
GGUAAGCAAUAUUACGGUAU,-1.32 ± 0.074,-1.44 ± 0.11
UGAUAGCAAUAUUACGACGA,-0.476 ± 0.16,0.0569 ± 0.18
AUGAAGCAAUAUUACGGAAC,-0.855 ± 0.098,-1.24 ± 0.15
AGCGAGCAAUAUUACGCUCA,-2.59 ± 0.21,-2.5 ± 0.26
GAUAAGCAAUAUUACGUGCU,-2.32 ± 0.18,-1.71 ± 0.19
AGCGAGCAAUAUUACGAUGG,-4.61 ± 0.42,-2.68 ± 0.24
CAUAAGCAAUAUUACGGGCA,-2.77 ± 0.18,-1.8 ± 0.19
GUGUAGCAAUAUUACGCGGU,-2.85 ± 0.34,-0.66 ± 0.41
ACAUAGCAAUAUUACGCCGC,,-2.65 ± 0.4
GUGUAGCAAUAUUACGCGAU,-3.21 ± 0.26,-1.96 ± 0.26
ACAAAGCAAUAUUACGCGUA,-1.4 ± 0.099,-0.512 ± 0.097
AGGAAGCAAUAUUACGCACG,-0.986 ± 0.15,-1.23 ± 0.18
UUAUAGCAAUAUUACGCUUC,-3.49 ± 0.32,-3.42 ± 0.43
CAUUAGCAAUAUUACGUUUU,-4 ± 0.24,-3.21 ± 0.24
AUUUAGCAAUAUUACGUAGG,-2.98 ± 0.14,-2.02 ± 0.16
AUGGAGCAAUAUUACGGCAU,-0.641 ± 0.16,-0.53 ± 0.16
UGUCAGCAAUAUUACGAGUC,-3.49 ± 0.26,-2.78 ± 0.25

Sequence,self-splicing fitness (ln) (30 °C),self-splicing fitness (ln) (37 °C)
GGGAAGCAAUAUUACGAGUC,-2.56 ± 0.17,-1.36 ± 0.16
UAGCAGCAAUAUUACGGGGU,-3.72 ± 0.14,-2.99 ± 0.16
UAUUAGCAAUAUUACGGAUC,-1.65 ± 0.18,-0.508 ± 0.28
UUUAAGCAAUAUUACGCCGU,-1.49 ± 0.41,-1.84 ± 0.27
CAGGAGCAAUAUUACGGUCG,0.425 ± 0.084,0.544 ± 0.12
UGCGAGCAAUAUUACGAGAG,-2.89 ± 0.15,
UCUAAGCAAUAUUACGAUGU,-0.365 ± 0.06,-0.355 ± 0.074
AGCUAGCAAUAUUACGGUCC,-0.52 ± 0.1,-0.0902 ± 0.14
CAUAAGCAAUAUUACGAGGC,-3.54 ± 0.35,-2.24 ± 0.35
ACUUAGCAAUAUUACGUGUU,-3.22 ± 0.16,-1.5 ± 0.12
CAUAAGCAAUAUUACGAGGG,-2.96 ± 0.17,-2.53 ± 0.28
GUCUAGCAAUAUUACGGCUC,-0.737 ± 0.086,0.57 ± 0.12
UAUCAGCAAUAUUACGCGCU,-2.73 ± 0.21,-1.76 ± 0.23
GCAAAGCAAUAUUACGCCCG,-1.23 ± 0.22,-2.06 ± 0.38
GCCUAGCAAUAUUACGCGAG,-2.33 ± 0.21,-2.29 ± 0.16
GAUGAGCAAUAUUACGGGGG,-4.46 ± 0.34,-1.44 ± 0.25
GGGUAGCAAUAUUACGUAAA,-0.962 ± 0.13,-0.0364 ± 0.15
CCCUAGCAAUAUUACGGGGC,-3.47 ± 0.15,-2.15 ± 0.22
AGGUAGCAAUAUUACGCACA,-0.467 ± 0.017,0.0312 ± 0.034
CUUUAGCAAUAUUACGAGGG,-3.57 ± 0.21,-2.26 ± 0.27
UUGCAGCAAUAUUACGAAGA,-2.37 ± 0.21,-1.57 ± 0.18
GGUCAGCAAUAUUACGAUGA,-0.626 ± 0.087,0.0621 ± 0.099
AGAGAGCAAUAUUACGUGAA,-2.82 ± 0.3,-2.16 ± 0.29
GCCGAGCAAUAUUACGUUGA,-3 ± 0.16,-2.88 ± 0.2
UGACAGCAAUAUUACGCAUG,-1.03 ± 0.055,-0.328 ± 0.061

Sequence,self-splicing fitness (ln) (30 °C),self-splicing fitness (ln) (37 °C)
AAGCAGCAAUAUUACGGGAG,-3.74 ± 0.16,-3.05 ± 0.23
CCGAAGCAAUAUUACGGCUC,-3.57 ± 0.32,-2.81 ± 0.35
AUUUAGCAAUAUUACGUAGU,-1.54 ± 0.079,-0.851 ± 0.1
GUAAAGCAAUAUUACGAUCA,-0.396 ± 0.11,-0.197 ± 0.11
GCUGAGCAAUAUUACGAAGU,,-1.72 ± 0.41
UGAUAGCAAUAUUACGGACC,-1.26 ± 0.26,
UCUUAGCAAUAUUACGGAUC,,-1.69 ± 0.36
CAGGAGCAAUAUUACGAUUC,,-1.93 ± 0.38
CGAAAGCAAUAUUACGUGGG,-2.3 ± 0.098,-2.46 ± 0.14
GACCAGCAAUAUUACGCCCU,-0.482 ± 0.11,-0.286 ± 0.12
AAUCAGCAAUAUUACGGGCU,-2.04 ± 0.081,-1.22 ± 0.094
CAUGAGCAAUAUUACGAUUU,-2.51 ± 0.15,-2.15 ± 0.2
AUACAGCAAUAUUACGUAUG,-2.42 ± 0.16,-2.52 ± 0.18
ACGUAGCAAUAUUACGCUGC,-3.09 ± 0.34,-1.44 ± 0.38
UUACAGCAAUAUUACGCGGC,-2.62 ± 0.14,-2.03 ± 0.18
CUAGAGCAAUAUUACGGGGG,-2.64 ± 0.24,-1.11 ± 0.27
GAGAAGCAAUAUUACGGUUG,-2.18 ± 0.1,-1.99 ± 0.14
AAUCAGCAAUAUUACGACUU,0.234 ± 0.068,0.142 ± 0.083
CGAGAGCAAUAUUACGCCGG,-2.74 ± 0.41,-1.27 ± 0.45
ACCCAGCAAUAUUACGUAGG,-0.517 ± 0.064,-0.48 ± 0.081
AAAAAGCAAUAUUACGUACU,0.142 ± 0.054,0.151 ± 0.077
CCCUAGCAAUAUUACGUAGC,-2.65 ± 0.17,-2.75 ± 0.24
